Three sequences from publication PMC7948458 can be followed below.

Broadly, the Kd is the concentration at which binding is half-saturated. A low value points to higher affinity.

Common to all, as to experiment: EMSA
Data set [1] addresses OGG1 C253S C253S (UniProt O15527). The note with it: 8-oxoguanine at position 16 of strand 1, opposite C; EMSA: 0.1 nM DNA, 0.5-4000 nM OGG1, 25 mM Tris-HCl pH 7.6, 175 nM NaCl (sic), 1 mM EDTA, 1 mM DTT, 300 ug/ml BSA, 12% glycerol, 15 min, 4 C. On the technique in general: Mobility shift assays separate free from complexed probe on a gel.
The target of data set [2] is OGG1 WT (UniProt O15527). The conditions noted are these: EMSA: 0.1 nM DNA, 0.5-4000 nM OGG1, 25 mM Tris-HCl pH 7.6, 175 nM NaCl (sic), 1 mM EDTA, 1 mM DTT, 300 ug/ml BSA, 12% glycerol, 15 min, 4 C.
Sequence of OGG1 WT (O15527 whole entry): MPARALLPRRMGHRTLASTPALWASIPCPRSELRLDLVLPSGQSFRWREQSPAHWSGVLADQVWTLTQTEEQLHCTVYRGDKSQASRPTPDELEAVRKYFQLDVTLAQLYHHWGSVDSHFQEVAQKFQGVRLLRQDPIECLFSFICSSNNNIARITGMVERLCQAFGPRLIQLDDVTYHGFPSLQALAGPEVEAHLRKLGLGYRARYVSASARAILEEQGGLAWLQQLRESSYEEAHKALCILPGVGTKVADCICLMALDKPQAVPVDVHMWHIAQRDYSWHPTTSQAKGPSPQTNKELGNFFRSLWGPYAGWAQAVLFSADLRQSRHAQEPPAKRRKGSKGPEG
Data set [3] has as its target OGG1 C255S C255S (UniProt O15527). The conditions noted are these: 8-oxoguanine at position 16 of strand 1, opposite C; EMSA: 0.1 nM DNA, 0.5-4000 nM OGG1, 25 mM Tris-HCl pH 7.6, 175 nM NaCl (sic), 1 mM EDTA, 1 mM DTT, 300 ug/ml BSA, 12% glycerol, 15 min, 4 C.
The target of data set [4] is OGG1 C28S C28S (UniProt O15527). The note with it: EMSA: 0.1 nM DNA, 0.5-4000 nM OGG1, 25 mM Tris-HCl pH 7.6, 175 nM NaCl (sic), 1 mM EDTA, 1 mM DTT, 300 ug/ml BSA, 12% glycerol, 15 min, 4 C.
Sequence of OGG1 C28S C28S (O15527 whole entry C28S): as the sequence (O15527 whole entry) above, with C28S counted along it
In data set [5] the target is OGG1 C140S C140S (UniProt O15527). The note with it: 8-oxoguanine at position 16 of strand 1, opposite C; EMSA: 0.1 nM DNA, 0.5-4000 nM OGG1, 25 mM Tris-HCl pH 7.6, 175 nM NaCl (sic), 1 mM EDTA, 1 mM DTT, 300 ug/ml BSA, 12% glycerol, 15 min, 4 C.
Sequence of OGG1 C140S C140S (O15527 whole entry C140S): as the sequence (O15527 whole entry) above, with C140S counted along it
In data set [6] the target is OGG1 C146S C146S (UniProt O15527). The conditions noted are these: EMSA: 0.1 nM DNA, 0.5-4000 nM OGG1, 25 mM Tris-HCl pH 7.6, 175 nM NaCl (sic), 1 mM EDTA, 1 mM DTT, 300 ug/ml BSA, 12% glycerol, 15 min, 4 C.
Sequence of OGG1 C146S C146S (O15527 whole entry C146S): as the sequence (O15527 whole entry) above, with C146S counted along it
The target of data set [7] is OGG1 C241S C241S (UniProt O15527). The conditions noted are these: EMSA: 0.1 nM DNA, 0.5-4000 nM OGG1, 25 mM Tris-HCl pH 7.6, 175 nM NaCl (sic), 1 mM EDTA, 1 mM DTT, 300 ug/ml BSA, 12% glycerol, 15 min, 4 C.
Sequence of OGG1 C241S C241S (O15527 whole entry C241S): as the sequence (O15527 whole entry) above, with C241S counted along it
Setting [8] is: 8-oxoguanine at position 16 of strand 1, opposite C.
[9] abbreviates: tetrahydrofuran abasic analog at position 16 of strand 1 (written N), opposite base Y is C or A, not stated for this assay (written N).

Sequence of OGG1 C255S C255S (O15527 whole entry C255S): as the sequence (O15527 whole entry) above, with C255S counted along it
Sequence of OGG1 C253S C253S (O15527 whole entry C253S): as the sequence (O15527 whole entry) above, with C253S counted along it

For “CGTTCAACGTGCACTGACAGCACGTCCCAT (double strand) [8-oxoG:C 30-mer duplex]”, the binding signal (fold increase in Kd vs WT) in data set [1], in data set [3], in data set [4] (setting [8]), in data set [5], in data set [6] (setting [8]) and in data set [7] (setting [8]) was 10 throughout. The sequence also returned a Kd in data set [2] (setting [8]) of 1.9 nM.
Consider “CGTTCAACGTGCACTGACAGCACGTCCCAT / ATGGGACGTGCTGTAAGTGCACGTTGAACG [8-oxoG:A 30-mer duplex]”, for which the Kd in data set [2] (8-oxoguanine at position 16 of strand 1, opposite A) was found to be 201 nM.
“CGTTCAACGTGCACTNACAGCACGTCCCAT (double strand) [THF 30-mer duplex]”: the Kd was 0.6 nM in data set [2] (setting [9]), 2.2 nM in data set [4] (setting [9]), 9.9 nM in data set [6] (setting [9]) and 3.5 nM in data set [7] (setting [9]).
